Test results as given in PMC9780748.

Key:
Experiment in all cases: potentiometry
[1] = target: Cterm310 (UniProt position 310, GQLHCT-----); settings: 298 K; 0.1 M NaClO4; none (HClO4/KOH); free peptide (0.5 mM), no metal
[2] = target: Glu303 (UniProt position 303, …); settings: 298 K; 0.1 M NaClO4; none (HClO4/KOH); free peptide (0.5 mM), no metal
[3] = target: Arg187 (UniProt position 187, …); settings: 298 K; 0.04 M sodium dodecyl sulfate (no other salt stated); none (HClO4/KOH); free peptide (0.5 mM) in SDS, no metal
[4] = target: Tyr189 (UniProt position 189, …); settings: 298 K, 0.04 M sodium dodecyl sulfate (no other salt stated), none (HClO4/KOH)
[5] = target: Arg76 (UniProt position 76, …); settings: 298 K, 0.1 M NaClO4, none (HClO4/KOH)
[6] = target: Lys79 (UniProt position 79, …); settings: 298 K, 0.1 M NaClO4, none (HClO4/KOH)
[7] = free peptide (0.5 mM) in SDS, no metal
[8] = Ni(II) complex, metal:peptide 1:1, 0.5 mM peptide
[9] = Zn(II) complex, metal:peptide 1:1, 0.5 mM peptide
[10] = free peptide (0.5 mM), no metal

Question: For PNCHTHEGGQLHCT [Aspf2 (Asp f 2 zincophore) C-terminal fragment 297-310, Ac-PNCHTHEGGQLHCT (Aspergillus fumigatus)], which pKa [1] is on record?
Answer: 3.08

Question: And the pKa [2]?
Answer: 4.24

Question: How did the pKa [3] turn out when MHRLYHVPAVGQGWVDHFAD [Aspf2 (Asp f 2 zincophore) fragment 185-204, Ac-MHRLYHVPAVGQGWVDHFAD-NH2 (Aspergillus fumigatus)] was run?
Answer: 11.24

Question: And the pKa ([4]; Zn(II) complex, metal:peptide 1:1, 0.5 mM peptide, in SDS)?
Answer: 9.56

Question: What about the pKa [4, 7] of the same protein?
Answer: 10.12

Question: What does the source list for ARHAKAH [Aspf2 (Asp f 2 zincophore) fragment 75-81, Ac-ARHAKAH-NH2 (Aspergillus fumigatus)]?
Answer: pKa [5, 8]: 11.38; pKa [5, 9]: 11.79; pKa [5, 10]: 11.14; pKa [6, 8]: 9.87; pKa [6, 9]: 9.75; pKa [6, 10]: 9.79

Question: MHRLYHVP [Aspf2 (Asp f 2 zincophore) fragment 185-192, Ac-MHRLYHVP-NH2 (Aspergillus fumigatus)] was tested. Which pKa [3] did it give?
Answer: 11.21

Question: And the pKa [4, 7]?
Answer: 9.56
